Data on two molecules can be found in paper PMC406421 (Nuclear Receptor, 2004).

The target of assay [1] is GAL4-DBD/DRIP205 receptor interaction domain fusion protein (human) (UniProt Q15648). Description: two-hybrid.
The target of assay [2] is GAL4-DBD/DRIP205 receptor interaction domain fusion protein (human, UniProt Q15648 527-774). Description: two-hybrid.
GAL4-DBD/DRIP205 receptor interaction domain fusion protein, sequence (Q15648 527-774): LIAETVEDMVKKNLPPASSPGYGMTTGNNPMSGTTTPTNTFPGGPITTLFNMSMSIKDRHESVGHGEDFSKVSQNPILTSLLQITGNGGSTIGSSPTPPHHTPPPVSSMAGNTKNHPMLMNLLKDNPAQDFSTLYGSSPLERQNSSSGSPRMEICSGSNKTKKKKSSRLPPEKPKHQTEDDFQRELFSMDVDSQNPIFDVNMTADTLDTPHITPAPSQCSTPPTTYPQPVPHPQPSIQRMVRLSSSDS

GAL4-DBD/DRIP205 receptor interaction domain fusion protein (human), sequence (Q15648 527-774): as above

For “VP16-AD/CAR-LBD fusion protein of CAR(SV2) (from UniProt Q14994-2 105-348) (domain or fragment)”, the fold induction of the interaction by CITCO over Me2SO (two-hybrid reporter) in assay [1] was 100 fold.

B1: VP16-AD/CAR-LBD fusion protein of reference CAR(SV1) (domain or fragment, human, UniProt Q14994-2 105-348, looked up)
chain: QLSKEQEELIRTLLGAHTRHMGTMFEQFVQFRPPAHLFIHHQPLPTLAPVLPLVTHFADINTFMVLQVIKFTKDLPVFRSLPIEDQISLLKGAAVEICHIVLNTTFCLQTQNFLCGPLRYTIEDGARVGFQVEFLELLFHFHGTLRKLQLQEPEYVLLAAMALFSPDRPGVTQRDEIDQLQEEMALTLQSYIKGQQRRPRDRFLYAKLLGLLAELRSINEAYGYQIQHIQGLSAMMPLLQEICS
In the case of B1, the “fold induction of the interaction by CITCO over Me2SO (two-hybrid reporter)” value in assay [2] stood at 2 fold.
